Laboratory results reported in patent publication US20240398942A1 (CHIA TAI TIANQING PHARMACEUTICAL GROUP, published 2024).
Read-outs that look alike come from different tables or passages of the source.

Assays:
[1] = target: T1, recombinant human CD40-his (Acro biosystems, Cat. No. CD0-H5228) (human, UniProt P25942 21-193); assay: BLI (Octet RED 96), antibody captured from cell supernatant on AHC sensor, human CD40-his as analyte, 1:1 fit
T1 construct: Bought protein; also called human CD40-his protein; not shown: His tag
T1 sequence (P25942 21-193 limits assumed): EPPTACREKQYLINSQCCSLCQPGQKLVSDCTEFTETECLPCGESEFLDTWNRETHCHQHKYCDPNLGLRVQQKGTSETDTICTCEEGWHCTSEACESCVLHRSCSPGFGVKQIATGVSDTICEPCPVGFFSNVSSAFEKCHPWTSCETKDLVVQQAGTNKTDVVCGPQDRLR
Procedure: After six days of culture in a shake flask, the cell supernatant containing the humanized antibodies huC1H1-V1 to huC1H1-V4 was harvested and the binding affinity of the antibodies to human CD40 was determined on an Octet system (Fortebio, Octet RED 96) according to the following procedures. Briefly, an anti-human IgG Fc capture (AHC) biosensor (from ForteBio) was pre-soaked in a 10 mM glycine solution (pH 1.5) for 3 s, and then soaked in a running buffer (PBST containing 0.5% w/v of BSA) for 3 s. The pre-soaking and soaking procedures were repeated 3 times. Then, the sensor was soaked in the cell supernatant containing the humanized anti-CD40 antibody, chimeric antibody C1H1 dissolved in HBS-EP⁺ buffer at a concentration of 5 μg/mL, or the benchmark dissolved in HBS-EP⁺ buffer at a concentration of 5 μg/mL for 120 s, and then soaked in the running buffer for 5 min. The new baseline was run in the running buffer for 180 s. The sensor was then soaked for 120 s in human CD40-his protein (Acro biosystems, Cat. No. CD0-H5228) 2-fold serially diluted from 40 nM in the running buffer and for 10 min in the running buffer […]. Finally, the sensor was pre-soaked in a 10 mM glycine solution (pH 1.5) for 3 s, and then soaked in the running buffer for 3 s. The pre-soaking and soaking procedures were repeated 3 times. The association and dissociation curves were fitted to a 1:1 Langmuir binding model using ForteBio Data Analysis 8.1.

human CD40-Fc protein [2] = target: T2, human CD40-Fc protein (human, biotinylated (sites not given) in the capture ELISA and the benchmark blocking ELISA; not biotinylated in the ligand blocking ELISA); assay: capture ELISA: antibody captured on coated goat anti-human IgG F(ab')2, biotinylated human CD40-Fc 1.15 nM, streptavidin-HRP, OD(450-630)
T2 construct: also called biotinylated human CD40-Fc
T2 sequence (chain, as listed by the source limits assumed): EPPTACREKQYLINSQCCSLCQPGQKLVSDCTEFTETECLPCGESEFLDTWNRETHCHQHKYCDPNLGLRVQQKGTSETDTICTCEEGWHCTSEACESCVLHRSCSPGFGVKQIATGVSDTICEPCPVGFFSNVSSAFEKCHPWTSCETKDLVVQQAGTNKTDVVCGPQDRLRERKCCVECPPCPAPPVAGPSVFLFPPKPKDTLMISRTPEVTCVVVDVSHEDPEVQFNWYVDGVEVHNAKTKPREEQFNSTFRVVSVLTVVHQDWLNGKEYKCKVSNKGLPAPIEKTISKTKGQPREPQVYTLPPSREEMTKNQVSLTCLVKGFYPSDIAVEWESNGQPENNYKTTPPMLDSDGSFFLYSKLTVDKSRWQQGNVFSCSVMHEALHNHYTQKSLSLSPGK
Procedure: (§1) The plate was washed once with a washing buffer (PBS+0.05% v/v of Tween-20, PBST) and then blocked with 200 μL/well blocking buffer (PBST containing 5% w/v of skim milk) for 2 h at 37° C. The plate was washed 4 times, and the anti-CD40 antibody of the present application, BM1, BM2, and a negative control hIgG (human immunoglobulin for intravenous injection (pH 4), Hualan Biological Engineering Inc.) serially 5-fold diluted from 66.7 nM in a PBST containing 2.5% w/v of skim milk was added at 100 μL per well. The plate was incubated for 40 min at 37° C. and washed 4 times. A biotinylated human CD40-Fc protein (amino acid residues 21-193 of SEQ ID NO: 30 linked to the N terminus of amino acid residues 99-330 of SEQ ID NO: 28, dissolved in PBST containing 2.5% w/v of skim milk at a concentration of 1.15 nM) was added at 100 μL/well to a 96-well plate coated with the anti-CD40 antibody. The plate was incubated at 37° C. for 40 min and washed 4 times. An HRP-labeled streptavidin (diluted at 1:10000 in PBST, Jackson Immuno Research, Cat. No. 016-030-084) was added at 100 μL/well, and the plate was incubated at 37° C. for another 40 min. After the last wash, 100 μL/well of ELISA substrate TMB (Innoreagents, Cat. No. TMB-S-002) was added and the plate was incubated at room temperature. After 3-10 min, the reaction was stopped by adding 1 M H₂SO₄ at 50 µL/well, and the absorbance of each well was read on a microplate reader using the dual wavelength mode (TMB detection wavelength: 450 nm, reference wavelength: 630 nm). Curves of OD(450-630) values vs. antibody concentration were plotted. Data were analyzed using Graphpad Prism software, and EC₅₀ values were obtained.

human CD40-Fc protein [3] = target: T2, human CD40-Fc protein; assay: as above; remark: listed apart in the source
Procedure: as §1

Row | Binder | Kd [1] | koff [1] | kon [1] | EC50 (human CD40-Fc protein [2]) | EC50 (human CD40-Fc protein [3])
1 | humanized antibody huC1H1-V3 (antibody, human IgG2, kappa, V domains shown, Human IgG2 / kappa; Tested as cell supernatant in the Octet assay) VH: EVQLVESGGGLVKPGGSLRLSCAASGFTFSNYGISWVRQAPGKGLEWVASISSGGDNTYYPDNVKGRFTISRDNAKNSLYLQMNSLRAEDTAVYYCARAGEKAMDYWGQGTLVTVSS VL: EIVLTQSPATLSLSPGERATLSCRASQTINNNLHWYQQKPGQAPRLLIYYASQSISGIPARFSGSGSGTDFTLTISSLEPEDFAVYYCQQFSSWPLTFGGGTKVEIKR | 5.41 nM | 0.00283 s⁻¹ | 523000 M⁻¹ s⁻¹ |  | 
2 | humanized antibody huC1H1-V4 (antibody, human IgG2, kappa, V domains shown, Human IgG2 / kappa; Tested as cell supernatant in the Octet assay) VH: EVQLVESGGGLVKPGGSLRLSCAASGFTFSNYGISWVRQAPGKGLEWVSSISSGGDNTYYPDNVKGRFTISRDNAKNSLYLQMNSLRAEDTAVYYCARAGEKAMDYWGQGTLVTVSS VL: EIVLTQSPATLSLSPGERATLSCRASQTINNNLHWYQQKPGQAPRLLIYYASQSISGIPARFSGSGSGTDFTLTISSLEPEDFAVYYCQQFSSWPLTFGGGTKVEIKR | 8.66 nM | 0.00367 s⁻¹ | 424000 M⁻¹ s⁻¹ |  | 
3 | chimeric antibody 1A3 (antibody, human IgG1, kappa, V domains shown, Mouse variable regions on human IgG1 / kappa constant regions) VH: EVQLQQSGPELVKTGASVKISCKASGYSFIGYYLHWVKQSLGKGLEWIGYISCHDGTIIYNQKFKGKATFTLDTSSSTAYMQFSSLTSEDSAVYFCARFLNYYGSNYAMDYWGQGTSVTVSS VL: DIVMTQSHKFMSTSVGDRVSITCKASQDVGPAVAWYQQKPGQSPKLLIYWASTRHTGVPDRFTGSGYGTDFTLTINNVQSEDLADYFCQQYFTYPLTFGGGTKLEIKR |  |  |  | 1.33 nM | 
4 | mouse anti-CD40 monoclonal antibody 1A3 (parent of chimeric antibody 1A3) (antibody, V domains shown, Parent mouse antibody of chimeric 1A3; also called parent antibody) VH: EVQLQQSGPELVKTGASVKISCKASGYSFIGYYLHWVKQSLGKGLEWIGYISCHDGTIIYNQKFKGKATFTLDTSSSTAYMQFSSLTSEDSAVYFCARFLNYYGSNYAMDYWGQGTSVTVSS VL: DIVMTQSHKFMSTSVGDRVSITCKASQDVGPAVAWYQQKPGQSPKLLIYWASTRHTGVPDRFTGSGYGTDFTLTINNVQSEDLADYFCQQYFTYPLTFGGGTKLEIK |  |  |  | 0.592 nM | 
5 | chimeric antibody 1D1 (antibody, human IgG1, kappa, V domains shown, Mouse variable regions on human IgG1 / kappa constant regions) VH: EVQLQQSGPELVKPGASVKMSCKASGYTFTDYVMHWVKQKPGQGLECIGYINPYNDGTTYNEKFKGKATLTSDKSSNAAYLELSSLTSEDSAVYYCARGFLRESWFGYWGQGTLVTVSA VL: DVLLTQTPLSLPVSLGDQASISCRSSQNIVHSNGNTYLDWYLQKPGQSPKLLIYKVSNRFSGVPDRFSGSGSGTDFTLKISRVEAEDLGVYYCFQGSHVPPTFGGGTKLELKR |  |  |  |  | 15 nM
6 | mouse anti-CD40 monoclonal antibody 1D1 (parent of chimeric antibody 1D1) (antibody, V domains shown, Parent mouse antibody of chimeric 1D1; also called parent antibody) VH: EVQLQQSGPELVKPGASVKMSCKASGYTFTDYVMHWVKQKPGQGLECIGYINPYNDGTTYNEKFKGKATLTSDKSSNAAYLELSSLTSEDSAVYYCARGFLRESWFGYWGQGTLVTVSA VL: DVLLTQTPLSLPVSLGDQASISCRSSQNIVHSNGNTYLDWYLQKPGQSPKLLIYKVSNRFSGVPDRFSGSGSGTDFTLKISRVEAEDLGVYYCFQGSHVPPTFGGGTKLELK |  |  |  |  | 8.7 nM
